Test results published in US20210292392A1.

Biological target: full length spike (S) protein of SARS-CoV-2 (SARS-CoV-2) (UniProt P0DTC2)
Test: cell-based or functional assay

Q: Which Neutralizing activity (%) Mean at 0.0228624 µg/ml does the source give for VRC01 (antibody) here?
A: 13.2%

Q: And the Neutralizing activity (%) Mean at 0.0685871 µg/ml?
A: 10.4%

Q: What about the Neutralizing activity (%) Mean at 0.2057613 µg/ml of the same substance?
A: 14.4%

Q: What about the Neutralizing activity (%) Mean at 0.6172839 µg/ml of the same substance?
A: 24.9%

Q: And the Neutralizing activity (%) Mean at 1.851852 µg/ml?
A: 8.1%

Q: What about the Neutralizing activity (%) Mean at 5.555555 µg/ml of the same substance?
A: 27.1%

Q: And the Neutralizing activity (%) Mean at 16.66667 µg/ml?
A: 26.6%

Q: What about the Neutralizing activity (%) Mean at 50 µg/ml of the same substance?
A: 33.9%
